Measurements as given in US7569390 (MEDICAL RESEARCH COUNCIL, dated 2009).

Biological target: T1, Syk/BTM116 (LexA-Syk bait) (E. coli, UniProt P48025 1-629)
T1 construct: also called pLexA-Syk; not shown: E. coli LexA domain of vector pBTM116
Test: yeast two-hybrid (L40), β-galactosidase assay; FIG. 2B row 2, empty pVP16 control

T1 sequence (P48025 whole entry, the tested form may be a part): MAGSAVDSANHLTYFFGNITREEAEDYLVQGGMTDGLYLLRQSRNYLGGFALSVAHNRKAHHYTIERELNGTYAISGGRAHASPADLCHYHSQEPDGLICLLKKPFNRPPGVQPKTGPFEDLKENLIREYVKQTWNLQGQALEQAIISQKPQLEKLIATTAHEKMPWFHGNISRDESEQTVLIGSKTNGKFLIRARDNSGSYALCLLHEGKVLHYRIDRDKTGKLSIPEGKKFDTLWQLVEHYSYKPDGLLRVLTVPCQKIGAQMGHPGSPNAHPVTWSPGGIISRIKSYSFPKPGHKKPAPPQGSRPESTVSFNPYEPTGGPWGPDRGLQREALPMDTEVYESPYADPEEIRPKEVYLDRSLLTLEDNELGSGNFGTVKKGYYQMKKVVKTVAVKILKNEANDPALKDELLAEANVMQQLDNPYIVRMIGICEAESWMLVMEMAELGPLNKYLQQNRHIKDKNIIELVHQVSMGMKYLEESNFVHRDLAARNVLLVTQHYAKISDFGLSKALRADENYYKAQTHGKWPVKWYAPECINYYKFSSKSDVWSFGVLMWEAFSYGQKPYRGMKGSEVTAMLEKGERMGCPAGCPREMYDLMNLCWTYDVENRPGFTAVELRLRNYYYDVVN

B1: VP16 vector alone (pVP16, no scFv insert) (other)
chain: STAPPTDVSLGDELHLDGEDVAMAHADALDDFDLDMLGDGDSPGPGFTPHDSAPYGALDMADFEFEQMFTDALGIDEYGG
notes: also called empty pVP16 vector
binding result: no binding
